In the supplement of paper PMC7125110:
± gives the standard error. Fewer inactive variants are shown than the library holds.

B1: glmS ribozyme (parent)
chain: AUAAAAGCGCCAGAACUACAGAAAUGUAGUUGACGAGGAGGAGGUUUAUCGAAUUUUCGGCGGAUGCCUCCAAA

Experiments:
Settings in all cases: with glucosamine-6-phosphate
[1] = variants of: B1; test: self-cleavage kobs at 160 uM GlcN6P; higher = faster cleavage; RNA array
How it was run: (§1)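 Barcoded ribozyme variants, transcribed in situ by E. coli RNA polymerase on sequenced MiSeq chips, were followed via a hybridised Cy3 probe at 37 °C. Glucosamine-6-phosphate ranged from 40 μM to 10 mM in HEPES/KCl/Mg(OAc)2 buffer. kobs came from decay fits to per-tile medians, and kcat and KM from weighted Michaelis–Menten fits.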

[2] = variants of: B1; test: self-cleavage kobs at 2500 uM GlcN6P; higher = faster cleavage; RNA array
How it was run: as §1

[3] = variants of: B1; test: self-cleavage kobs at 640 uM GlcN6P; higher = faster cleavage; RNA array
How it was run: as §1

[4] = variants of: B1; test: self-cleavage kobs at 10000 uM GlcN6P; higher = faster cleavage; RNA array
How it was run: as §1

Variant | self-cleavage kobs at 160 uM GlcN6P [1] [s⁻¹] | self-cleavage kobs at 2500 uM GlcN6P [2] [s⁻¹] | self-cleavage kobs at 640 uM GlcN6P [3] [s⁻¹] | self-cleavage kobs at 10000 uM GlcN6P [4] [s⁻¹]
G7U G41U A53G | < 1e-05 | < 1e-05 | – | –
C11A G41U G43C | < 1e-05 | – | < 1e-05 | –
C8A A33U | < 1e-05 | < 1e-05 | – | < 1e-05
A12U U31G U69C | 0.000336 ± 6.5e-05 | 0.0026 ± 0.00042 | 0.000408 ± 0.00019 | –
C10U A15U | < 1e-05 | – | – | < 1e-05
U57C C58U | < 1e-05 | – | – | –
C10G A14G U31A C34U G51C A53U U54C G66U | – | – | < 1e-05 | –
G7U U30C C61A | – | – | < 1e-05 | –
U56A G63C | < 1e-05 | < 1e-05 | – | –
A6G C16G G40A C50U C70G | < 1e-05 | < 1e-05 | < 1e-05 | < 1e-05
U30A A48U G62A | < 1e-05 | < 1e-05 | < 1e-05 | –
A14C A39U U56A G63U | < 1e-05 | – | – | –
A36U U55C | < 1e-05 | – | < 1e-05 | –
A14G G29A A36U U47C C67U | < 1e-05 | – | < 1e-05 | –
G9C A12G | < 1e-05 | < 1e-05 | – | < 1e-05
G40C A42G A53C | 5.62e-05 ± 1.9e-05 | 0.000564 ± 0.00013 | 0.00018 ± 6.6e-05 | –
A15G U55G C71G | 0.00025 ± 5.3e-05 | 0.000866 ± 0.00028 | 0.000408 ± 9.6e-05 | –
G38A U57A G66U C70A | – | 6.05e-05 ± 2.3e-05 | 6.22e-05 ± 2.6e-05 | –
G9A U30C A42C C70U | < 1e-05 | – | < 1e-05 | –
A15G G40A A53G | 0.000772 ± 0.00017 | 0.00292 ± 0.00062 | – | –
U47G G51A A52G U65G | – | < 1e-05 | < 1e-05 | –
C34U G43U G59A G62C C67A | – | < 1e-05 | < 1e-05 | –
A15U C34G G63A | – | – | < 1e-05 | –
G66A U69G | 8.36e-05 ± 2.3e-05 | 0.00012 ± 2.1e-05 | 0.000427 ± 0.0001 | 4.74e-05 ± 1.7e-05
A15C A64U | < 1e-05 | – | < 1e-05 | –
C34U A52C A64U C67U | < 1e-05 | < 1e-05 | < 1e-05 | –
A42G U46G U65C C68U | < 1e-05 | – | – | –
U31C A64U U65A | < 1e-05 | – | < 1e-05 | –

Variant | self-cleavage kobs at 160 uM GlcN6P [1] [s⁻¹] | self-cleavage kobs at 2500 uM GlcN6P [2] [s⁻¹] | self-cleavage kobs at 640 uM GlcN6P [3] [s⁻¹] | self-cleavage kobs at 10000 uM GlcN6P [4] [s⁻¹]
G13U U31C A33U G41A G43C | < 1e-05 | – | – | –
G29A G35A | < 1e-05 | < 1e-05 | – | –
C16U G32U C58G | – | – | 0.00017 ± 3.4e-05 | –
A14U U45A U46C | 0.000306 ± 0.0001 | 0.00191 ± 0.00053 | 0.00108 ± 0.00027 | –
C11A C58U C68A | 7.67e-05 ± 3.2e-05 | 7.25e-05 ± 2.7e-05 | – | 5.61e-05 ± 1.5e-05
G38A A42G G60A | < 1e-05 | – | – | –
G32A A42C | < 1e-05 | < 1e-05 | < 1e-05 | < 1e-05
C8A C70G | < 1e-05 | – | – | –
C10U C11G A14G G43C A53C | < 1e-05 | < 1e-05 | < 1e-05 | –
A6G U30G G59U | < 1e-05 | < 1e-05 | < 1e-05 | –
A6C G37U C50U G60C | < 1e-05 | – | < 1e-05 | –
C34G C58U A64C C67G | 4.06e-05 ± 2e-05 | – | 7.23e-05 ± 2.6e-05 | –
C34A U57G | < 1e-05 | – | – | < 1e-05
U49A G59U C71G | – | – | < 1e-05 | –
G7C C8U | – | – | < 1e-05 | –
C34A G66U | < 1e-05 | – | < 1e-05 | < 1e-05
G13U G32A G41C G63U C71A | < 1e-05 | < 1e-05 | < 1e-05 | –
C11U U54G C58A C67G | – | 5.14e-05 ± 2e-05 | 0.000225 ± 7.2e-05 | –
C19A U65A | 0.000107 ± 4.8e-05 | 0.00137 ± 0.00051 | – | –
G44U U45G A53C | – | – | 0.000372 ± 0.00011 | –
A6C U49G G62A A64G | < 1e-05 | < 1e-05 | < 1e-05 | –
A6U C10G A36C | < 1e-05 | < 1e-05 | – | –
C61U G62U | < 1e-05 | – | < 1e-05 | < 1e-05
C10G A12G G38C | < 1e-05 | – | < 1e-05 | –
A15C U30G U31G | 0.00201 ± 0.00083 | 0.00946 ± 0.0035 | 0.0146 ± 0.0069 | –
A42C C50U | < 1e-05 | < 1e-05 | < 1e-05 | < 1e-05
A42U G51U A52C C70G | – | – | < 1e-05 | –
